System: Escherichia coli TOP10
Assay: shrunken log2 fold change of peptide-encoding DNA abundance (4.5 h post-induction vs induction); higher = less antimicrobial activity (less host growth inhibition)
Conditions: time post-induction: 4.5 h; library: site-saturation at positions 5, 18, 19, 20
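Further: peptides expressed intracellularly from a pBAD plasmid library in pooled LB shake-flask culture, induced with 0.3% L-arabinose, DNA abundance read by NGS, three biological replicates, DESeq2 with apeglm shrinkage.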

Row | Sequence | shrunken log2 fold change
1 | RRIRRRPPRLPRPRPRPSFVPRP | -0.0435
2 | RRIRTRPPRLPRPRPRPFACPRP | -0.198
3 | RRIRCRPPRLPRPRPRPYHGPRP | -0.968
4 | RRIRGRPPRLPRPRPRPVWSPRP | 0.179
5 | RRIRLRPPRLPRPRPRPNYSPRP | -0.718
6 | RRIRTRPPRLPRPRPRPARAPRP | 0.786
7 | RRIRGRPPRLPRPRPRPFSLPRP | -0.693
8 | RRIRMRPPRLPRPRPRPTSGPRP | 1.06
9 | RRIRNRPPRLPRPRPRPTSFPRP | 0.00362
10 | RRIRYRPPRLPRPRPRPDHGPRP | -0.0075
11 | RRIRARPPRLPRPRPRPYVQPRP | -0.471
12 | RRIRRRPPRLPRPRPRPSLTPRP | -0.0192
13 | RRIRRRPPRLPRPRPRPNEVPRP | -0.0332
14 | RRIRARPPRLPRPRPRPMTLPRP | 0.151
15 | RRIRDRPPRLPRPRPRPRFGPRP | 0.206
16 | RRIRCRPPRLPRPRPRPESIPRP | -0.263
17 | RRIRTRPPRLPRPRPRPKYMPRP | -0.15
18 | RRIRNRPPRLPRPRPRPEMTPRP | -0.059
19 | RRIRRRPPRLPRPRPRPRSVPRP | 0.234
20 | RRIRDRPPRLPRPRPRPVNNPRP | 0.0566
21 | RRIRYRPPRLPRPRPRPSKVPRP | -1.04
22 | RRIRPRPPRLPRPRPRPCDIPRP | 0.024
23 | RRIRDRPPRLPRPRPRPHKRPRP | -0.0521
24 | RRIRIRPPRLPRPRPRPAHIPRP | -0.063
25 | RRIRARPPRLPRPRPRPHMSPRP | -0.181

Row | Sequence | shrunken log2 fold change
26 | RRIRSRPPRLPRPRPRPSLMPRP | -0.201
27 | RRIRIRPPRLPRPRPRPPANPRP | -0.0976
28 | RRIRPRPPRLPRPRPRPQPWPRP | 0.348
29 | RRIRDRPPRLPRPRPRPNLYPRP | -0.0872
30 | RRIRHRPPRLPRPRPRPFMLPRP | -0.726
31 | RRIRKRPPRLPRPRPRPENQPRP | 0.156
32 | RRIRFRPPRLPRPRPRPEIAPRP | -0.0213
33 | RRIRIRPPRLPRPRPRPEKQPRP | 0.0192
34 | RRIRERPPRLPRPRPRPRTDPRP | 0.193
35 | RRIRIRPPRLPRPRPRPTNLPRP | -0.606
36 | RRIRKRPPRLPRPRPRPWWTPRP | 0.0991
37 | RRIRKRPPRLPRPRPRPYSEPRP | -0.269
38 | RRIRHRPPRLPRPRPRPFLNPRP | -0.169
39 | RRIRPRPPRLPRPRPRPTFSPRP | -0.182
40 | RRIRVRPPRLPRPRPRPKFRPRP | 0.0323
41 | RRIRHRPPRLPRPRPRPGICPRP | -0.154
42 | RRIRNRPPRLPRPRPRPCADPRP | 1.47
43 | RRIRKRPPRLPRPRPRPDDRPRP | 0.0147
44 | RRIRDRPPRLPRPRPRPCMKPRP | -0.0664
45 | RRIRYRPPRLPRPRPRPPQDPRP | -0.362
46 | RRIRWRPPRLPRPRPRPPVPPRP | 0.469
47 | RRIRKRPPRLPRPRPRPQNQPRP | 0.0634
48 | RRIRERPPRLPRPRPRPWLLPRP | -1.56
49 | RRIRKRPPRLPRPRPRPMLNPRP | 0.174
50 | RRIRFRPPRLPRPRPRPFKRPRP | -0.813

Row | Sequence | shrunken log2 fold change
51 | RRIRWRPPRLPRPRPRPIPRPRP | 0.0469
52 | RRIRVRPPRLPRPRPRPVFNPRP | -0.392
53 | RRIRKRPPRLPRPRPRPNAQPRP | 0.842
54 | RRIRYRPPRLPRPRPRPLEIPRP | -0.00674
55 | RRIRYRPPRLPRPRPRPRLEPRP | -0.0441
56 | RRIRTRPPRLPRPRPRPIYRPRP | -0.0278
57 | RRIRFRPPRLPRPRPRPQMPPRP | -0.107
58 | RRIRNRPPRLPRPRPRPNADPRP | -0.194
59 | RRIRTRPPRLPRPRPRPNAWPRP | 0.0447
60 | RRIRHRPPRLPRPRPRPTYKPRP | -0.333
61 | RRIRMRPPRLPRPRPRPFMCPRP | -0.171
62 | RRIRERPPRLPRPRPRPIHQPRP | -1.22
63 | RRIRDRPPRLPRPRPRPEHYPRP | -0.0548
64 | RRIRKRPPRLPRPRPRPRACPRP | 0.474
65 | RRIRLRPPRLPRPRPRPWLMPRP | -0.102
66 | RRIRFRPPRLPRPRPRPEEVPRP | 0.0815
67 | RRIRQRPPRLPRPRPRPCQKPRP | 0.0369
68 | RRIRVRPPRLPRPRPRPMRFPRP | 0.48
69 | RRIRGRPPRLPRPRPRPDACPRP | 1.23
70 | RRIRPRPPRLPRPRPRPLCTPRP | 1.09
71 | RRIRYRPPRLPRPRPRPGEDPRP | -0.00904
72 | RRIRHRPPRLPRPRPRPRGLPRP | 0.369
73 | RRIRPRPPRLPRPRPRPIRQPRP | -0.0697
74 | RRIRDRPPRLPRPRPRPHSCPRP | -0.00804
75 | RRIRQRPPRLPRPRPRPVLLPRP | -0.154

Row | Sequence | shrunken log2 fold change
76 | RRIRMRPPRLPRPRPRPSLHPRP | -0.222
77 | RRIRPRPPRLPRPRPRPMNKPRP | -0.551
78 | RRIRERPPRLPRPRPRPILCPRP | -0.0244
79 | RRIRQRPPRLPRPRPRPGVNPRP | -0.343
80 | RRIRHRPPRLPRPRPRPPRQPRP | 0.108
81 | RRIRFRPPRLPRPRPRPTFDPRP | -0.138
82 | RRIRTRPPRLPRPRPRPNNYPRP | -0.754
83 | RRIRTRPPRLPRPRPRPNEVPRP | 0.0231
84 | RRIRLRPPRLPRPRPRPEHTPRP | 0.0956
85 | RRIRWRPPRLPRPRPRPYRVPRP | 0.00439
86 | RRIRMRPPRLPRPRPRPDCAPRP | 1.95
87 | RRIRWRPPRLPRPRPRPMYFPRP | -0.555
88 | RRIRQRPPRLPRPRPRPMYVPRP | -0.0439
89 | RRIRERPPRLPRPRPRPCSAPRP | -0.0881
90 | RRIRARPPRLPRPRPRPNTAPRP | 0.181
91 | RRIRVRPPRLPRPRPRPKTDPRP | -0.202
92 | RRIRFRPPRLPRPRPRPVVCPRP | -0.0801
93 | RRIRYRPPRLPRPRPRPWKEPRP | -0.0075
94 | RRIRFRPPRLPRPRPRPCCEPRP | -0.414
95 | RRIRMRPPRLPRPRPRPEMQPRP | 2.83
96 | RRIRSRPPRLPRPRPRPPLLPRP | 0.0398
97 | RRIRRRPPRLPRPRPRPEWQPRP | 0.0758
98 | RRIRDRPPRLPRPRPRPVRHPRP | 0.646
99 | RRIRERPPRLPRPRPRPKSGPRP | -0.136
100 | RRIRFRPPRLPRPRPRPYGNPRP | -0.527

Row | Sequence | shrunken log2 fold change
101 | RRIRFRPPRLPRPRPRPIQDPRP | -0.025
102 | RRIRLRPPRLPRPRPRPNQVPRP | -0.294
103 | RRIRCRPPRLPRPRPRPFMPPRP | -0.402
104 | RRIRLRPPRLPRPRPRPTKTPRP | -0.0526
105 | RRIRERPPRLPRPRPRPKWHPRP | -0.136
106 | RRIRIRPPRLPRPRPRPMQFPRP | -0.343
107 | RRIRLRPPRLPRPRPRPLYGPRP | -0.249
108 | RRIRVRPPRLPRPRPRPALSPRP | 0.414
109 | RRIRHRPPRLPRPRPRPGGWPRP | 1.47
110 | RRIRQRPPRLPRPRPRPKRHPRP | -0.0733
111 | RRIRHRPPRLPRPRPRPPACPRP | 0.153
112 | RRIRRRPPRLPRPRPRPAVYPRP | 0.0519
113 | RRIRQRPPRLPRPRPRPYQAPRP | -0.232
114 | RRIRARPPRLPRPRPRPQCHPRP | 0.441
115 | RRIRWRPPRLPRPRPRPFDVPRP | -0.00233
116 | RRIRKRPPRLPRPRPRPRVFPRP | 0.701
117 | RRIRVRPPRLPRPRPRPWFYPRP | -0.373
118 | RRIRKRPPRLPRPRPRPLMTPRP | 0.175
119 | RRIRERPPRLPRPRPRPVEEPRP | -0.127
120 | RRIRNRPPRLPRPRPRPAYFPRP | -0.175
121 | RRIRMRPPRLPRPRPRPGAWPRP | 0.122
122 | RRIRQRPPRLPRPRPRPFCDPRP | -0.259
123 | RRIRMRPPRLPRPRPRPLWDPRP | 0.437
124 | RRIRGRPPRLPRPRPRPICVPRP | 0.269
125 | RRIRMRPPRLPRPRPRPSWEPRP | 0.302

Row | Sequence | shrunken log2 fold change
126 | RRIRTRPPRLPRPRPRPFWEPRP | 1.78
127 | RRIRVRPPRLPRPRPRPSQSPRP | -0.146
128 | RRIRCRPPRLPRPRPRPFVCPRP | -0.242
129 | RRIRQRPPRLPRPRPRPGVKPRP | 0.0204
130 | RRIRLRPPRLPRPRPRPQQQPRP | 0.0294
131 | RRIRYRPPRLPRPRPRPGPYPRP | -0.771
132 | RRIRSRPPRLPRPRPRPDAGPRP | 0.569
133 | RRIRFRPPRLPRPRPRPSWRPRP | 0.167
134 | RRIRFRPPRLPRPRPRPWWEPRP | 0.0381
135 | RRIRYRPPRLPRPRPRPKGVPRP | 0.028
136 | RRIRIRPPRLPRPRPRPMQYPRP | -0.016
137 | RRIRCRPPRLPRPRPRPLVLPRP | -0.378
138 | RRIRKRPPRLPRPRPRPWEKPRP | -0.00969
139 | RRIRFRPPRLPRPRPRPMFVPRP | 0.109
140 | RRIRLRPPRLPRPRPRPRLCPRP | 0.35
141 | RRIRSRPPRLPRPRPRPKNMPRP | -0.324
142 | RRIRGRPPRLPRPRPRPPENPRP | 1.11
143 | RRIRQRPPRLPRPRPRPKLSPRP | 0.00202
144 | RRIRLRPPRLPRPRPRPNGTPRP | -0.221
145 | RRIRIRPPRLPRPRPRPRRAPRP | 0.176
146 | RRIRVRPPRLPRPRPRPCTDPRP | -0.46
147 | RRIRYRPPRLPRPRPRPEKTPRP | 0.0635
148 | RRIRERPPRLPRPRPRPMSCPRP | -0.206
149 | RRIRMRPPRLPRPRPRPRLIPRP | 0.0709
150 | RRIRQRPPRLPRPRPRPMWRPRP | 0.279

Source: the supplement of paper PMC9112550, “Optimization of the antimicrobial peptide Bac7 by deep mutational scanning” (BMC Biology, 2022)
